We go through 2 sequences from patent US9493557B2, “Chemokine binding polypeptides for treating autoimmunity and inflammation” (Biokine Therapeutics Ltd., priority 2009, dated 2016).

Common to all, as to assay type: cell-based
One test has as its target T1, IP-10 (Homo sapiens, UniProt P02778).
T1 construct: purchased PeproTech
T1 sequence (P02778 22-98): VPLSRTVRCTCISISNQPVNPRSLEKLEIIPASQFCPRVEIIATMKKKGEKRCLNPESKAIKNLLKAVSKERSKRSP
The experiment in a line: In vitro T cell adhesion to VCAM-1 induced by IP-10 under shear flow. As to conditions: for Inhibition of chemokine-dependent T cell adhesion: IP-10: 10 μg/ml peptide, T cells on VCAM-1 under shear flow. The protocol:
(§1) 50 ml of blood was added to 10 ml of a solution of Dextran T-500 (6% w/v) in PBS (phosphate buffer saline), and 7 ml of citrate buffer (25 grams citrate, 8 grams citric acid in 500 ml PBS). The solution was incubated for 30 minutes at 25° C. 10 ml of Ficoll 1077 was added to the bottom of the tube. The tube was then centrifuged at 2,000 rotations per minute for 30 minutes at 18° C. (with the brake mode of the centrifuge off). The interphase was collected and washed twice with 8 ml PBS with 5% FCS (fetal calf serum), followed by centrifugation at 1,400 rotations per minute for 5 minutes at 18° C. The cells were re-suspended in PBS with 5% FCS at a concentration less then 10^8 per ml. 2 ml of the cell solution were applied on a poly(methyl methacrylate) nylon wool column which was pre-soaked in PBS-5% FCS, and then incubated for 45 minutes at 25° C. Each column was washed with 8 ml PBS-5% FCS and the cells (T-cells and erythrocytes) were eluted by 50 ml of 5 mM EDTA (ethylenediaminetetraacetic acid) in PBS. A red pellet was obtained by centrifugation at 1,400 rotations per minute for 5 minutes at 4° C. (with the brake on).
(§2) In order to perform lysis of the erythrocytes, the red pellet was re-suspended in 5 ml of lysis-buffer (155 mM NH4Cl, 10 mM KHCO3, 0.1 mM EDTA, X0.1 PBS) for 4 minutes, followed by immediate addition of 50 ml of PBS with EDTA. Following centrifugation at 1,400 rotations per minute for 5 minutes at 4° C., the pellet was washed again with 50 ml PBS-EDTA and re-centrifuged under the same conditions. […] The cells were ready for use in experiments after overnight incubation at 37° C. […]
(§3) The plates were then assembled as the lower wall of a parallel wall flow chamber and mounted on the stage of an inverted microscope. […] The number of adherent cells resisting detachment by the elevated shear forces was determined after each interval by analysis of videotaped cell images, and was expressed as the percent of originally settled cells. […]

For a further test, the target named is T2, I-TAC (Homo sapiens, UniProt O14625).
T2 construct: purchased PeproTech
T2 sequence (O14625 22-94): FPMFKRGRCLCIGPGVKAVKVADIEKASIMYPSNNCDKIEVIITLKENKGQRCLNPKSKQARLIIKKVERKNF
The experiment in a line: In vitro T cell adhesion to VCAM-1 induced by I-TAC under shear flow. The conditions noted are these: for Inhibition of chemokine-dependent T cell adhesion: I-TAC: 10 μg/ml peptide, T cells on VCAM-1 under shear flow; for T cell adhesion induced by I-TAC (result in words): T cells on VCAM-1. The protocol: as §1
(§4) In order to perform lysis of the erythrocytes, the red pellet was re-suspended in 5 ml of lysis-buffer (155 mM NH4Cl, 10 mM KHCO3, 0.1 mM EDTA, X0.1 PBS) for 4 minutes, followed by immediate addition of 50 ml of PBS with EDTA. Following centrifugation at 1,400 rotations per minute for 5 minutes at 4° C., the pellet was washed again with 50 ml PBS-EDTA and re-centrifuged under the same conditions. A white pellet was obtained and re-suspended in RPMI medium with 10% FCS, L-glutamine, sodium pyruvate and antibiotics at a concentration of 3×10^6 cells per ml. The cells were incubated for 2 hours at 37° C., followed by collection of the non-adherent cells. The cells were ready for use in experiments after overnight incubation at 37° C.
(§5) 10 μg/ml of human VCAM-1 and 2 μg/ml of a chemokine (intact MIG, IP-10, I-TAC, MCP-1, RANTES, SDF-1 (stromal cell-derived factor-1), BCA-1 (B lymphocyte chemoattractant-1), IL-8 (interleukin-8) or eotaxin, or heat-inactivated SDF-1 as a control) were dissolved in PBS buffered with 20 mM bicarbonate (pH 8.5), and incubated in polystyrene plates overnight at 4° C. Alternatively, 10 μg/ml of the chemokine was used, and the plates were incubated for 30 minutes at room temperature. […]
as §3

The target in the next test is T3, MIG (Homo sapiens, UniProt Q07325).
T3 construct: purchased PeproTech
T3 sequence (Q07325 23-125): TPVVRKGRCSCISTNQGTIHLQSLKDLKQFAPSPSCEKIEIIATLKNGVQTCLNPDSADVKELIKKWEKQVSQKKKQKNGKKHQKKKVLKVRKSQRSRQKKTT
The experiment in a line: In vitro T cell adhesion to VCAM-1 induced by MIG under shear flow. As to conditions: for Inhibition of chemokine-dependent T cell adhesion: MIG: 10 μg/ml peptide, T cells on VCAM-1 under shear flow. The protocol:
as §1, §2, §3

For another test, the target named is T4, MCP-1 (Homo sapiens, UniProt P13500).
T4 construct: purchased PeproTech
T4 sequence (P13500 24-99): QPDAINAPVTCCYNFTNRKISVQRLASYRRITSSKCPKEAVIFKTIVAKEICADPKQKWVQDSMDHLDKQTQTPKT
The experiment in a line: In vitro T cell adhesion to VCAM-1 induced by MCP-1 under shear flow. As to conditions: for Inhibition of chemokine-dependent T cell adhesion: MCP-1: 10 μg/ml peptide, T cells on VCAM-1 under shear flow; for T cell adhesion induced by MCP-1 (result in words): T cells on VCAM-1. The protocol:
as §1, §4, §5, §3

The target of another test is T5, RANTES (Homo sapiens, UniProt P13501).
T5 construct: purchased PeproTech
T5 sequence (P13501 24-91): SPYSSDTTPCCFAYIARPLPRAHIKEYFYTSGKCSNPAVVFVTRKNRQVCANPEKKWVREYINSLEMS
The experiment in a line: In vitro T cell adhesion to VCAM-1 induced by RANTES under shear flow. The conditions noted are these: for Inhibition of chemokine-dependent T cell adhesion: RANTES: 10 μg/ml peptide, T cells on VCAM-1 under shear flow; for T cell adhesion induced by RANTES (result in words): T cells on VCAM-1. The protocol:
as §1, §4, §5, §3

For the next test, the target named is T6, Eotaxin (Homo sapiens, UniProt P51671).
T6 construct: purchased PeproTech
T6 sequence (P51671 24-97): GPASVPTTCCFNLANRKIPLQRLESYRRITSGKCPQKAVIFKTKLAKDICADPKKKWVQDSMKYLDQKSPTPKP
In words: In vitro T cell adhesion to VCAM-1 induced by eotaxin under shear flow. As to conditions: for Inhibition of chemokine-dependent T cell adhesion: Eotaxin: 10 μg/ml peptide, T cells on VCAM-1 under shear flow. The method, then:
as §1, §2, §3

The next test has as its target T7, SDF-1 (Homo sapiens, UniProt P48061).
T7 construct: purchased PeproTech
In words: In vitro T cell adhesion to VCAM-1 induced by SDF-1 under shear flow. The conditions noted are these: 10 μg/ml peptide; T cells on VCAM-1 under shear flow. The protocol: (§6) 50 ml of blood was added to 10 ml of a solution of Dextran T-500 (6% w/v) in PBS (phosphate buffer saline), and 7 ml of citrate buffer (25 grams citrate, 8 grams citric acid in 500 ml PBS). The solution was incubated for 30 minutes at 25° C. 10 ml of Ficoll 1077 was added to the bottom of the tube. The tube was then centrifuged at 2,000 rotations per minute for 30 minutes at 18° C. (with the brake mode of the centrifuge off). The interphase was collected and washed twice with 8 ml PBS with 5% FCS (fetal calf serum), followed by centrifugation at 1,400 rotations per minute for 5 minutes at 18° C. The cells were re-suspended in PBS with 5% FCS at a concentration less then 10^8 per ml. […]
(§7) In order to perform lysis of the erythrocytes, the red pellet was re-suspended in 5 ml of lysis-buffer (155 mM NH4Cl, 10 mM KHCO3, 0.1 mM EDTA, X0.1 PBS) for 4 minutes, followed by immediate addition of 50 ml of PBS with EDTA. […] The cells were ready for use in experiments after overnight incubation at 37° C. […]
as §3

The next test has as its target T8, IL-8 (Homo sapiens, UniProt P10145).
T8 construct: purchased PeproTech
T8 sequence (P10145 21-99): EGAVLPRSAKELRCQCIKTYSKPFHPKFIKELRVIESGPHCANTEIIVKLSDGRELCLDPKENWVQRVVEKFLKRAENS
In words: In vitro T cell adhesion to VCAM-1 induced by IL-8 under shear flow. The conditions noted are these: 10 μg/ml peptide; T cells on VCAM-1 under shear flow. The protocol:
as §6, §7, §3

The target of the next test is T9, BCA-1 (Homo sapiens, UniProt O43927).
T9 sequence (O43927 23-109): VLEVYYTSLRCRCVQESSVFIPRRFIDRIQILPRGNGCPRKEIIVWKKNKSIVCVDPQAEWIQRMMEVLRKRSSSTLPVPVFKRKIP
The experiment in a line: In vitro T cell adhesion to VCAM-1 induced by BCA-1 under shear flow. The conditions noted are these: 10 μg/ml peptide; T cells on VCAM-1 under shear flow. The method, then: as §6, §7, §3

T7 sequence (P48061 22-89 limits assumed): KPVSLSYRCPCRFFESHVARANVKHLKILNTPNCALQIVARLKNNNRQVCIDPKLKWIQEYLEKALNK

Consider “LDYPIPQTVLHH [BKT-P46, reference compound]”, for which, in the test with IP-10, the “Inhibition of chemokine-dependent T cell adhesion: IP-10” value was “− (− = no inhibition)”. For the same sequence, in the test with I-TAC, the “Inhibition of chemokine-dependent T cell adhesion: I-TAC” value is listed as “++ (++ = 100% inhibition)” and the “T cell adhesion induced by I-TAC (result in words)” value is on record as “inhibited”. Besides, the “Inhibition of chemokine-dependent T cell adhesion: MIG” value in the test with MIG is “++ (++ = 100% inhibition)”. For the same sequence, the “T cell adhesion induced by MIG (result in words)” value with MIG (T cells on VCAM-1) is on record as “inhibited”. Further, in the test with MCP-1, the “Inhibition of chemokine-dependent T cell adhesion: MCP-1” value was “++ (++ = 100% inhibition)” and the “T cell adhesion induced by MCP-1 (result in words)” value is recorded as “inhibited”. Moreover, in the test with RANTES, the “Inhibition of chemokine-dependent T cell adhesion: RANTES” value is recorded as “++ (++ = 100% inhibition)” and the “T cell adhesion induced by RANTES (result in words)” value was “inhibited”. For the same sequence, in the test with Eotaxin, the “Inhibition of chemokine-dependent T cell adhesion: Eotaxin” value is “− (− = no inhibition)”. In the test with SDF-1, the “Inhibition of chemokine-dependent T cell adhesion: SDF-1” value is recorded as “− (− = no inhibition)”. The “Inhibition of chemokine-dependent T cell adhesion: IL-8” value in the test with IL-8 is recorded as “− (− = no inhibition)”.

With “SIPSHSIHSAKA [BKT-P2, reference compound]”, in the test with IP-10, the “Inhibition of chemokine-dependent T cell adhesion: IP-10” value is on record as “++ (++ = 100% inhibition)”. Moreover, the “T cell adhesion induced by IP-10 (result in words)” value with IP-10 (T cells on VCAM-1) was “inhibited”. Besides, in the test with I-TAC, the “Inhibition of chemokine-dependent T cell adhesion: I-TAC” value is recorded as “++ (++ = 100% inhibition)” and the “T cell adhesion induced by I-TAC (result in words)” value was “inhibited”. Also, the “Inhibition of chemokine-dependent T cell adhesion: MIG” value with MIG is reported as “− (− = no inhibition)”. In the test with MCP-1, the “Inhibition of chemokine-dependent T cell adhesion: MCP-1” value was “++ (++ = 100% inhibition)” and the “T cell adhesion induced by MCP-1 (result in words)” value is “inhibited”. In the test with RANTES, the “Inhibition of chemokine-dependent T cell adhesion: RANTES” value is given as “++ (++ = 100% inhibition)” and the “T cell adhesion induced by RANTES (result in words)” value is given as “inhibited”. Moreover, the “Inhibition of chemokine-dependent T cell adhesion: Eotaxin” value with Eotaxin is recorded as “++ (++ = 100% inhibition)”. For the same sequence, the “T cell adhesion induced by eotaxin (result in words)” value with Eotaxin (T cells on VCAM-1) is reported as “inhibited”. In addition, in the test with SDF-1, the “Inhibition of chemokine-dependent T cell adhesion: SDF-1” value is given as “− (− = no inhibition)”. In the test with BCA-1, the “Inhibition of chemokine-dependent T cell adhesion: BCA-1” value is listed as “− (− = no inhibition)”.
